Values joined by “and” are separate entries in the source; they are usually repeats but may differ in a detail not shown here. Equal values may be shown once.
Conditions: Escherichia coli (strain K12), pH 7.8, 25 °C, Urea, Potassium phosphate 100 mM, transition: 3, whole UniProt chain shown

B1: Tryptophan synthase alpha chain wild type, P0A877 (protein)
chain: MERYESLFAQLKERKEGAFVPFVTLGDPGIEQSLKIIDTLIEAGADALELGIPFSDPLADGPTIQNATLRAFAAGVTPAQCFEMLALIRQKHPTIPIGLLMYANLVFNKGIDEFYAQCEKVGVDSVLVADVPVEESAPFRQAALRHNVAPIFICPPNADDDLLRQIASYGRGYTYLLSRAGVTGAENRAALPLNHLVAKLKEYNAAPPLQGFGISAPDQVKAAIDAGAAGAISGSAIVKIIEQHINEPEKMLAALKVFVQPMKAATRS
unfolding free energy (CD): 6.6 kcal/mol and 4.6 kcal/mol and 4.4 kcal/mol | denaturant m value (Fluorescence): 2.2 kcal/mol/M and 1.1 kcal/mol/M and 0.83 kcal/mol/M | unfolding free energy (Fluorescence): 6 kcal/mol and 4.5 kcal/mol and 4.9 kcal/mol

Reference: FireProtDB (doi:10.1110/ps.8.8.1623)
